Laboratory results: patent US12296006B2, “Anti-LY6H antibodies and antibody drug conjugates” (Bluefin BioMedicine, Inc., priority 2017, dated 2025)

How the values were obtained:
H446 = test: Anti-Ly6H antibodies binding to endogenous cell lines by flow cytometry: H446; parameters: species or system human; key: (−): No binding; (+): Weak binding; (++): Moderate binding; (+++): Strong binding; (++++): Very strong binding; conditions: primary antibodies 1 ug/ml, live cells on ice 30 minutes
Experimental: (§1) Staining for flow cytometry was performed in 1× cold PBS with 0.5% BSA. Primary antibodies (1 ug/ml) were incubated with live cells on ice for 30 minutes, after a brief wash, cells were incubated with Alexa Fluro® 488-conjugated anti-human IgG secondary antibody @1:1000 (709-546-149, Jackson ImmunoResearch). Acquisition of the data was performed on a MACSQuant© Flow Cytometers (Miltenyi Biotec) and analyzed with FlowJo software.
(§2) Fully human antibodies against LY6H were generated by hybridoma procedures. Briefly, H2L2 mice were immunized with either recombinant human Ly6H-ECD or BaF3 cells over-expressing LY6H and boosted with rabbit splenocytes expressing full length human LY6H or with ECD of LY6H recombinant protein. Splenocytes were fused with the mouse myeloma cell line X63-Ag8.653. Clones from H2L2 mice were identified by immunofluorescence (IF) based high content screening (HCS) on 293 cells overexpressing hLY6H, ratLy6H, and parental 293 cells not expressing LY6H, as well as endogenous small cell lung cancer (SCLC) cell line, H446. […] 270 hits were cryopreserved and stored in liquid nitrogen. Approximately 100 clones were selected for molecular cloning. Based on unique CDR3 sequences from the heavy chain variable domain, 10 antibodies from 8 families were chosen and confirmed by flow cytometry (MACSQuant® miltenybiotec.com) on the following cell lines. The small-cell-lung cancer cells (SCLC) included H446, DMS79, and H526 cells. The T-cell acute lymphoblastic leukemia (T-ALL) cancer cells included MOLT3 and KE-37 cells.

H69 = test: Anti-Ly6H antibodies binding to endogenous cell lines by flow cytometry: H69; parameters: species or system human; key: (−): No binding; (+): Weak binding; (++): Moderate binding; (+++): Strong binding; (++++): Very strong binding; conditions: primary antibodies 1 ug/ml, live cells on ice 30 minutes
Experimental: as §1
as §2, with “The small-cell-lung cancer cells (SCLC) included H446, DMS79, and H526 cells. The T-cell acute lymphoblastic leukemia (T-ALL) cancer cells included MOLT3 and KE-37 cells.” left out

H446 cells = test: Internalization assay in H446 cells (LAMP1 co-staining); format: cell-based, human; conditions: live H446 cells incubated with antibody at 37° C., fixed, permeablized, LAMP1 co-stain
Experimental: Live H446 cells were incubated with 12G7 for 2 hours, cells were then fixed, permeablized, and co-stained with LAMP1 antibody.
Live H446 cells were incubated with 12G7 antibody for 30 minutes at 37° C. After cytospin, cells were fixed with 4% PFA and permeablized with 100% methanol, and stained with LAMP1 antibody (#9091, Cell Signaling Technology, Inc.).

[1] = test system: LY6H positive SCLC and T cell acute lymphoblastic leukemia (T-ALL) cell lines; test: Flow cytometry binding of 12G7 to SCLC and T-ALL cell lines (FIG. 2); parameters: species or system human
Experimental: Dotted lines represent LY6H antibody.
as §1
as §2, with “Based on unique CDR3 sequences from the heavy chain variable domain, 10 antibodies from 8 families were chosen and confirmed by flow cytometry (MACSQuant® miltenybiotec.com) on the following cell lines. The small-cell-lung cancer cells (SCLC) included H446, DMS79, and H526 cells. The T-cell acute lymphoblastic leukemia (T-ALL) cancer cells included MOLT3 and KE-37 cells.” left out

DMS79 = test: Anti-Ly6H antibodies binding to endogenous cell lines by flow cytometry: DMS79; parameters: species or system human; key: (−): No binding; (+): Weak binding; (++): Moderate binding; (+++): Strong binding; (++++): Very strong binding; conditions: primary antibodies 1 ug/ml, live cells on ice 30 minutes
Experimental: as §1, §2

[2] = molecular target: H446, DMS79, H526, and MOLT3; test: Measurement of antibody EC50 by flow cytometry; format: binding, human; conditions: 100 nM to 0.1 nM antibody
Experimental: The assay uses 3-5 fold dilutions (from 100 nM to 0.1 nM) of antibody of a stock antibody concentration (100 nM) in binding buffer. Serial diluted antibodies were incubated with live cells on ice for 30 minutes, after a brief wash, cells were incubated with Alexa Fluro® 488-conjugated anti-human IgG secondary antibody @1:100, or 15 ug/ml (709-546-149, Jackson ImmunoResearch). Acquisition of the MFI (Median Fluorescent Intensity) was performed on a MACSQuant® Flow Cytometers (Miltenyi Biotec). EC50 was calculated using Dose-response EC50 shift by global fitting from GraphPad Prism.
EC50 or the concentration of antibody that gives half-maximal binding is determined by direct and saturable binding of an antibody dilution series to both target positive and negative cell lines. An estimate of affinity is interpreted from one-half the concentration at which antibody binding first achieves saturation. EC50 was measured in the following cell lines H446, DMS79, H526, and MOLT3 (FIG. 4). Though EC50 may not provide an accurate measure of affinity, it allows for ranking ordering of antibodies. 12G7, 11D9, 10B10, and 6D11 were ranked top, followed by 34H6, 1F8, and 2B11.

MOLT3 = test: Anti-Ly6H antibodies binding to endogenous cell lines by flow cytometry: MOLT3; parameters: species or system human; key: (−): No binding; (+): Weak binding; (++): Moderate binding; (+++): Strong binding; (++++): Very strong binding; conditions: primary antibodies 1 ug/ml, live cells on ice 30 minutes
Experimental: as §1, §2

KE-37 = test: Anti-Ly6H antibodies binding to endogenous cell lines by flow cytometry: KE-37; parameters: species or system human; key: (−): No binding; (+): Weak binding; (++): Moderate binding; (+++): Strong binding; (++++): Very strong binding; conditions: primary antibodies 1 ug/ml, live cells on ice 30 minutes
Experimental: as §1, §2

EOL1 = test: Anti-Ly6H antibodies binding to endogenous cell lines by flow cytometry: EOL1; parameters: species or system human; key: (−): No binding; (+): Weak binding; (++): Moderate binding; (+++): Strong binding; (++++): Very strong binding; conditions: primary antibodies 1 ug/ml, live cells on ice 30 minutes
Experimental: as §1
as §2, with “The small-cell-lung cancer cells (SCLC) included H446, DMS79, and H526 cells. The T-cell acute lymphoblastic leukemia (T-ALL) cancer cells included MOLT3 and KE-37 cells.” left out

| Molecule | binding by flow cytometry, H446 (H446) | binding by flow cytometry, H69 (H69) | internalization / co-localization with LAMP1 (H446 cells) | binding to LY6H positive SCLC and T-ALL cell lines [1] | binding by flow cytometry, DMS79 (DMS79) | rank ordering of antibodies by EC50 (half-maximal binding) [2] | binding by flow cytometry, MOLT3 (MOLT3) | binding by flow cytometry, KE-37 (KE-37) | binding by flow cytometry, EOL1 (EOL1) |
| --- | --- | --- | --- | --- | --- | --- | --- | --- | --- |
| 12G7: human anti-LY6H antibody, VH SEQ ID NO: 22, VL SEQ ID NO: 26 (antibody, V domains shown) VH: QVQLQQWGAGLLKPSETLSLTCAVYGGSFSGYYWSWIRQPPGKGLEWIGEINHSGSTYYNPSLKSRVTMSVDTSKNQFSLKLSSVTAADTAVYYCAKRWELGAFDIWGQGTMVTVSS VL: DIQMTQSPSSLSASVGDRVTITCRASQGISNYLAWYQQKPGKVPKLLIYAASTLQSGVPSRFSGSGSGTDFTLTISSLQPEDVATYYCQKYNSAPRTFGQGTKLEIK | (++++) | (−) | internalization | binds | (+++) | ranked top | (+++) | (++++) | (−) |
| 6D11: human anti-LY6H antibody, VH SEQ ID NO: 1, VL SEQ ID NO: 5 (antibody, V domains shown) VH: QVQLQQWGAGLFKPSETLSLTCAVYGGSFSGSLWSWIRQPPGKGLEWIGEINHSGSTNYTPSLKSRVTISVDTSKNQFSLKLTSVTAADTAVYYCARGRHIVVVTAIHSPFDYWGQGTLVTVSS VL: DIQMTQSPSSLSASVGDRVTITCRASQGISNYLAWYQQKPGKVPKLLIFAASTLQSGVPSRFSGSGSGTDFTLTISSLQPEDVATYYCQKYNSAPRTFGQGTKLEIK | (++++) |  |  |  | (+++) | ranked top | (+++) | (++++) |  |
| 10B10: human anti-LY6H antibody, VH SEQ ID NO: 60, VL SEQ ID NO: 26 (antibody, V domains shown) VH: QVQLQQWGAGLLKPSETLSLTCAVYGGSFSGYYWHWIRQPPGKGLEWIGEINHSESTKYNPSLKSRVTISVDTSKNQFSLKLSSVTGADTAVYYCARGQHIVVVTDSLGDYWGQGTLVTVSS VL: DIQMTQSPSSLSASVGDRVTITCRASQGISNYLAWYQQKPGKVPKLLIYAASTLQSGVPSRFSGSGSGTDFTLTISSLQPEDVATYYCQKYNSAPRTFGQGTKLEIK | (++++) |  |  |  | (+++) | ranked top | (+++) | (++++) |  |
